The labels stand for the following.
B1: I026C04 (scFv)
scFv: QVQLVQSGAEVKKPGSSVKVSCRASGGSFNHAISWVRQAPGRGLEWMGGILPMYGTANYAQKFQGRVTITADKLTNTVYMDLSRLRYEDTAVYYCARELGLSIVGATTGALDMWGKGTLVTVSSGGGGSGGGGSGGGGSAQSVLTQPPSVSAAPGQKVTISCSGSSSNIGNNYVSWYQQIPGTAPKLLIYENNKRPSGIPDRFSGSKSGASATLDITGLQTGDEADYYCGTWHSSQVVFGGGTKLTVLG
B2: I025B06 (scFv)
scFv: B1 scFv with T213A
B3: I025B09 (scFv)
scFv: B1 scFv with Q3H
B4: I071B03 (scFv)
scFv: QVQLQQSGAEVKKPGASVKVSCKASGYTFTKYTMHWVRQAPGQGPEWMGWINGGSGDTKYSRKFQGRVTITKDTSASAAYMELSSLGSEDTALYYCARATYDPLTGYSFDGFDIWGQGTMVTVSSGGGGSGGGGSGGGGSQSVLTQPASVSGSPGQSITISCTGTSSDVGGYNYVSWYQQHPGKAPKLMIYEGSKRPSGVSNRFSGSKSGNTASLTISGLQAEDEADYYCSSYTTRSTRVFGGGTKLTVLD
B5: I065D04 (scFv)
scFv: QVQLQESGPGLVKPSETLSLTCTVSGGSISSGYYWGWVRQPPGQGLEWIGSIYHSGSTYHNPSLKSRVTISMDTSKNQFSLNLNSVTAADTAVYYCARGKGYYDILTGYYRDNWFDPWGRGTLVTVSSGGGGSGGGGSGGGGSQSVLTQPASVSGSPGQSITISCTGTSSDVGGYNYVSWYQQHPGKAPKLMIYEGSKRPSGVSNRFSGSKSGNTASLTISGLQAEDEADYYCSSYTTRSTRVFGGGTKLTVLG
B6: I073F04 (scFv)
scFv: QVQLQQSGAEVKKPGSSVKVSCKASGGTFRSYAFSWVRQAPGQGLEWMGYIVPVFGTATYAQNFQGRVTITADELTTTAFMELSSLTSEDTAVYYCARSLATRPLGMDVWGRGTTVTVSSGGGGSGGGGSGGGGSQSVLTQPASVSGSPGQSITISCTGTSSDVGGYNYVSWYQQHPGKAPKLMIYEGSKRPSGVSNRFSGSKSGNTASLTISGLQAEDEADYYCSSYTTRSTRVFGGGTKLTVLG
B7: I072B09 (scFv)
scFv: QVQLQQSGAEVKKPGASVKVSCRASGYTFTKYTMHWVRQAPGQGPEWMGWINGGSGDTKYSRKFQGRVTITKDTSASAAYMELSSLGSEDTALYYCARATYDPLTGYSFDGFDIWGQGTLVTVSSGGGGSGGGGSGGGGSSELTQDPAVSVALGQTVRITCQGDSLRSYYTNWFQQKPGQAPLLVVYAKNKRPSGIPDRFSGSSSGNTASLTITGAQAEDEADYYCNSRDSSGNHVVFGGGTKLTVLD
B8: I078D08 (scFv)
scFv: QVNLRESGGGLVQPGGSLRLSCAASGFTFSSYWMSWVRQAPGKGLEWVANIKQDGSEKYYVDSVKGRFTISRDNSKNTLYLQMNSLRAEDTAVYYCARDAQSYYDILTGYQSYAFDIWGQGTTVTVSSGGGGSGGGGSGGGGSSELTQDPAVSVALGQTVRITCQGDSLRSYYTNWFQQKPGQAPLLVVYAKNKRPSGIPDRFSGSSSGNTASLTITGAQAEDEADYYCHSRDSSGNHVLFGGGTKLTVLG
B9: I068F03 (scFv)
scFv: EVQLVQSGADVKKPGASVKVSCKASHYPFTTYGVSWVRQAPGQGLEWMGWISNYNGHTRYAPKFQGRVTLTTDTLTNTAFMELKSLTSDDTAIYYCARAGNEYGHTERPADYWGKGTMVTVSSGGGGSGGGGSGGGGSAQAVLTQPSSVSGAPGQRVTISCTGSSSNIGAGYDVHWYQQLPGTTPKLLISRNNNRPPGVPDRFSGSKSGTSASLAITGLQAEDEADYYCQSYDTTLRGWVFGGGTKVTVLG
B10: I065D04 (scFv)
scFv: B5 scFv
B11: I064C07 (scFv)
scFv: QVQLVQSGAEVKKPGSSVKVSCKASGGTFSSYAISWVRQAPGQGLEWMGGIIPIFGTANYAQKFQGRVTITADDLTRTAYMEMSSLKFEDTAVYYCASSEGTIFGVDWGRGTLVTVSSGGGGSGGGGSGGGGSDIQMTQSPSFLSASVGDRVTITCRASQGINNYLAWYQQKPGRAPKLLMYAASSLQSGVPSRFSGSGSGTDFTLTISSLQPEDFATYYCLQDSDYPLTFGGGTKLEIKR
B12: I064C04 (scFv)
scFv: QVQLVQSGAEVKKPGASVKVSCEASGYTFTSYGISWVRQAPGQGLEWMGWISTYNGNTRYPQKLQGRVTMTTDTSTSTAYMDLRSLRSDDTAVYYCARDGRLSYDILTGYYARDYYGMDDWGRGTMVTVSSGGGGSGGGGSGGGGSQSVLTQPASVSGSPGQSITISCTGTSSDVGGYNYVSWYQQHPGKAPKLMIYEGSKRPSGVSNRFSGSKSGNTASLTISGLQAEDEADYYCSSYTTRSTRVFGGGTKLTVLG
B13: I068C08 (scFv)
scFv: QVQLQQSGAEVKKPGSSVKVSCQASGGSFSREGISWVRQAPGHGLEWMGRIIPVLGVADYAQKFQGRVKISVDRLTSVAYMELTSLRFEDTAVYYCAREGMNDFINSHHYYTMDAWGQGTLVTVSSGGGGSGGGGSGGGGSAQAVLTQPSSVSGAPGQRVTISCTGSSSNIGAGYDVHWYQQLPGTAPKLLIYGNSNRPSGVPDRFSGSKSGTSASLAITGLQAEDEADYYCQSYDSSLSGSVFGGGTKLTVLG
B14: I075G01 (scFv)
scFv: QVQLVQSGAEVKKPGASVKVSCKTSGYTFTGYNINWVRQAPGQGLEWMGWVSPSNGDTSYAQTFQGRVTMTRDTSISTAYMELSSLKSDDTAVYYCARDHFDTLTGYFRRLDSWGQGTLVTVSSGGGGSGGGGSGGGGSALSSELTQDPEVSVALGQTVTITCQGDSLITHYASWFQQKPGQAPLLVFYSKDKRPSGIPDRFSGSYSGNTASLTITGAQAEDEADYYCNSRDSRGKNHVAFGGGTKLTVLG
B15: I069B07 (scFv)
scFv: QVQLVQSGAEVKKPGASVKVSCKASGYTFTSYGISWVRQAPGQGLEWMGWISAYNGNTNYAQKLQGRVTMTTDTSTSTAYMELRSLRSEDTAVYYCARMEYDILTGYYGGYFDYWGQGTMVTVSSGGGGSGGGGSGGGGSQSVLTQPASVSGSPGQSITISCTGTSSDVGGYNYVSWYQQHPGKAPKLMIYEGSKRPSGVSNRFSGSKSGNTASLTISGLQAEDEADYYCSSYTTRSTRVFGGGTKLTVLG

Where a chain is given by its changes, count along the chain named.

Data on 15 molecules can be found in patent US20110293610A1 (published 2011).

Sequence of LIGHT (O43557 74-240 limits assumed): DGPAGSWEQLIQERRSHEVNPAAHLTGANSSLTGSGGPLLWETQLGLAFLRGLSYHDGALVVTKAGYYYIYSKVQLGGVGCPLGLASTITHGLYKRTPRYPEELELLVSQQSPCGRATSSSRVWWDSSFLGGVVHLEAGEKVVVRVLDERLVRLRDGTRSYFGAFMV
T4 sequence (P01375 77-233 limits assumed): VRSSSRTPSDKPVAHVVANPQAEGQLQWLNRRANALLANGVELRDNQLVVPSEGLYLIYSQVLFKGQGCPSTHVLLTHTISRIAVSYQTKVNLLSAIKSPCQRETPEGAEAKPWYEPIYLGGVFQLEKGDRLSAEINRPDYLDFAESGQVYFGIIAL

One test deals with T1, biotinylated B Lymphocyte Stimulator, soluble form (human, UniProt Q9Y275 134-285, biotinylated with NHS-biotin, molar ratio 20:1 biotin:protein).
T1 construct: also called bio-B Lymphocyte Stimulator; free B Lymphocyte Stimulator
Put plainly: phage scFv, receptor binding inhibition on IM9 cells. The method, then:
All of the unique phage scFvs from panel 2 were assessed for their ability to inhibit B Lymphocyte Stimulator binding to its cognate receptor on IM9 cells. The biotinylation of B Lymphocyte Stimulator, maintenance of IM9 cells and receptor binding inhibition assay were performed as described in Example 3.
As for B1, the binding result is “binds”.
B2: the binding result is reported as “binds”.
As to B3, the binding result is listed as “binds”.
For the molecule B4, the binding result is reported as “binds”.
On the same count and under the same terms, then B5, with “binds”; and B6, with “binds”.

For the next test, the target named is T2, TNF-beta (human, UniProt P01374 35-205).
T2 construct: also called TNFβ; Tumour Necrosis Factor-beta
T2 sequence (looked up): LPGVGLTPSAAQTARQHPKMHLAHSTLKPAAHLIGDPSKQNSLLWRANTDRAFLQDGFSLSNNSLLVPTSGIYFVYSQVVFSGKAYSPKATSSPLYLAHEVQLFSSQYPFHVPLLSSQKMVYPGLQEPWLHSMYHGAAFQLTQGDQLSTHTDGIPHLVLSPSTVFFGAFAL
Put plainly: phage ELISA. (In general: An ELISA detects its analyte on a solid surface through an enzyme-linked reagent.)
As to B7, the binding result was “no binding”.
On the same count and under the same terms, then B8, with “no binding”.
The same measure, in the same setting: then B9, with “no binding”; and B10, with “no binding”.
The same measure, in the same setting: the value for B11 was “no binding”.
Consider B12, for which the binding result is on record as “no binding”.
For the molecule B13, the binding result is “no binding”.
Same read-out and setting: then B14, with “no binding”; and B15, with “no binding”.

The next test concerns the target LIGHT (human, UniProt O43557 74-240, limits assumed). Description: phage ELISA.
Regarding B7, the binding result is listed as “no binding”.
With B8, the binding result is listed as “no binding”.
On the same count and under the same terms, then B9, with “no binding”; and B10, with “no binding”; and B11, with “no binding”.
The same measure, in the same setting: then B12, with “no binding”; and B13, with “no binding”.
Consider B14, for which the binding result is given as “no binding”.
Same read-out and setting: then B15, with “no binding”.

A further test has as its target T3, B Lymphocyte Stimulator, soluble form (human) (human, UniProt Q9Y275 134-285, biotinylated with NHS-biotin where used as biotinylated B Lymphocyte Stimulator).
T3 construct: Coated on plastic, captured on streptavidin plates, amine-coupled to a CM5 chip or free in solution, depending on the assay; also called BLyS; immobilized B Lymphocyte Stimulator
Put plainly: phage ELISA.
For the molecule B7, the binding result was “binds”.
Take B8: the binding result is “binds”.
On the same count and under the same terms, the value for B9 was “binds”; that for B10 was “binds”; that for B11 was “binds”.
Turning to B12, the binding result is “binds”.
On the same count and under the same terms, the value for B13 was “binds”; that for B14 was “binds”; that for B15 was “binds”.

The next test addresses T4, TNF-alpha (human, UniProt P01375 77-233).
T4 construct: also called TNFα; TNF-α
Put plainly: phage ELISA.
For the molecule B7, the binding result was “no binding”.
With B8, the binding result is “no binding”.
On to B9, for which the binding result is on record as “no binding”.
As to B10, the binding result was “no binding”.
Same read-out and setting: the value for B11 was “no binding”; that for B12 was “no binding”; that for B13 was “no binding”.
B14: the binding result is on record as “no binding”.
As to B15, the binding result is “no binding”.

For another test, the target named is T5, TRAIL (human, UniProt P50591 114-281).
T5 construct: also called TNF-related apoptosis inducing ligand
T5 sequence (P50591 114-281 limits assumed): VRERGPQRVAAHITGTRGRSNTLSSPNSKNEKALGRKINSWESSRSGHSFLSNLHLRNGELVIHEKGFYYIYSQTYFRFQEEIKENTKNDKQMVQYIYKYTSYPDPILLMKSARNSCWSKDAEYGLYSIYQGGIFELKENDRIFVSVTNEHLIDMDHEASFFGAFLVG
Description: phage ELISA.
For B7, the binding result is listed as “no binding”.
The same measure, in the same setting: the value for B8 was “no binding”; that for B9 was “no binding”; that for B10 was “no binding”.
In the case of B11, the binding result is on record as “no binding”.
Same read-out and setting: then B12, with “no binding”; and B13, with “no binding”; and B14, with “no binding”.
Still for that read-out and setting: the value for B15 was “no binding”.
